Source: PMC4227728

Key:
[1] = biological target: ErbB2 (as used in the ErbB2 ELISA of the Fab mutants) (human) (UniProt P04626); assay: ELISA
[2] = biological target: ErbB2 ECD labeled with an infrared dye (human) (UniProt P04626); assay: cross-linking

Row | fold reduction of binding against the WT Fab [1] | percent of ErbB2 ECD cross-linked [2] | Substance
1 | 20 fold |  | Herceptin Fab-AcrK103
2 |  | 80% | Herceptin Fab-VSF92
